The source of these data is the Immune Epitope Database (IEDB).

What is called IC50 is the concentration at which inhibition is half-maximal. One may read the Kd as the equilibrium constant for the complex coming apart.

What all share (conditions): source organism: Vaccinia virus WR
In test [1] the target is HLA-A*31:01. Nature of the test: IEDB peptide-MHC binding, purified MHC/competitive/radioactivity; ≥ and ≤ were set here for values at or beyond the usual limits of such assays.
In test [2] the target is HLA-A*68:01. Described as above.
A further test deals with HLA-A*11:01. The test is described as above.
The next test addresses HLA-A*03:01. Described as above.
Another test deals with HLA-A*33:01. Nature of the test: IEDB peptide-MHC binding, purified MHC/competitive/radioactivity; filed as Kd, often an IC50 or EC50 that approximates it; ≥ and ≤ were set here for values at or beyond the usual limits of such assays.
Test [3] has as its target HLA-A*68:01. Described as above.
Test [4] concerns the target HLA-A*01:01. Nature of the test: IEDB peptide-MHC binding, purified MHC/competitive/radioactivity; ≥ and ≤ were set here for values at or beyond the usual limits of such assays.
The target in test [5] is HLA-A*29:02. In words: IEDB peptide-MHC binding, purified MHC/competitive/radioactivity; filed as Kd, often an IC50 or EC50 that approximates it; ≥ and ≤ were set here for values at or beyond the usual limits of such assays.
Test [6] has as its target HLA-A*26:01. The test is described as above.
Test [7] has as its target HLA-A*30:02. Described as above.
A further test has as its target HLA-B*07:02. In words: IEDB peptide-MHC binding, purified MHC/competitive/radioactivity; ≥ and ≤ were set here for values at or beyond the usual limits of such assays.
Test [8] has as its target HLA-B*35:01. Described as above.
In test [9] the target is HLA-B*54:01. In words: IEDB peptide-MHC binding, purified MHC/competitive/radioactivity; filed as Kd, often an IC50 or EC50 that approximates it; ≥ and ≤ were set here for values at or beyond the usual limits of such assays.
The target of a further test is HLA-B*51:01. The test is described as above.
Another test addresses HLA-B*53:01. The test is described as above.
For the next test, the target named is HLA-A*02:02. Nature of the test: IEDB peptide-MHC binding, purified MHC/competitive/radioactivity; ≥ and ≤ were set here for values at or beyond the usual limits of such assays.
A further test concerns the target HLA-A*02:03. The test is described as above.
For test [10], the target named is HLA-A*02:06. The description is as above.
The target in test [11] is HLA-A*68:02. In words: IEDB peptide-MHC binding, purified MHC/competitive/radioactivity; filed as Kd, often an IC50 or EC50 that approximates it; ≥ and ≤ were set here for values at or beyond the usual limits of such assays.
Test [12] addresses HLA-A*30:02. In words: IEDB peptide-MHC binding, purified MHC/competitive/radioactivity; ≥ and ≤ were set here for values at or beyond the usual limits of such assays.
Test [13] has as its target HLA-A*02:06. Nature of the test: IEDB peptide-MHC binding, purified MHC/competitive/radioactivity; filed as Kd, often an IC50 or EC50 that approximates it; ≥ and ≤ were set here for values at or beyond the usual limits of such assays.
The target of test [14] is HLA-A*31:01. The description is as above.
In test [15] the target is HLA-A*29:02. Nature of the test: IEDB peptide-MHC binding, purified MHC/competitive/radioactivity; ≥ and ≤ were set here for values at or beyond the usual limits of such assays.
Test [16] addresses HLA-A*26:01. The test is described as above.
Test [17] addresses HLA-A*01:01. Nature of the test: IEDB peptide-MHC binding, purified MHC/competitive/radioactivity; filed as Kd, often an IC50 or EC50 that approximates it; ≥ and ≤ were set here for values at or beyond the usual limits of such assays.
Test [18] deals with HLA-A*68:02. In words: IEDB peptide-MHC binding, purified MHC/competitive/radioactivity; ≥ and ≤ were set here for values at or beyond the usual limits of such assays.
For test [19], the target named is HLA-B*54:01. The description is as above.
The target of test [20] is HLA-B*35:01. In words: IEDB peptide-MHC binding, purified MHC/competitive/radioactivity; filed as Kd, often an IC50 or EC50 that approximates it; ≥ and ≤ were set here for values at or beyond the usual limits of such assays.
For the next test, the target named is HLA-A*24:02. Nature of the test: IEDB peptide-MHC binding, purified MHC/competitive/radioactivity; ≥ and ≤ were set here for values at or beyond the usual limits of such assays.
A further test addresses HLA-A*23:01. Described as above.

On to KVMFVIRFK, for which the IC50 in the test with HLA-A*31:01 [1] was determined as 4.9 nM; with HLA-A*68:01 [2], 30 nM; with HLA-A*11:01, 7.3 nM; with HLA-A*03:01, 1.4 nM. Besides, the dissociation constant (Kd) with HLA-A*33:01 is 0.857 µM.

With KVLHVTDTNK, the results for the IC50 with HLA-A*31:01 [1], with HLA-A*11:01 and with HLA-A*03:01 were 466 nM, 10 nM and 8.1 nM, respectively. Also, the results for the Kd with HLA-A*33:01 and with HLA-A*68:01 [3] were at least 50 µM and 3.02 µM, respectively.

For the sequence FGDSKEPVPY, the IC50 with HLA-A*01:01 [4] was determined as 137 nM. Besides, the values for the Kd in the test with HLA-A*29:02 [5], in the test with HLA-A*26:01 [6] and in the test with HLA-A*30:02 [7] were 564 nM, 5.68 µM and 8170 nM, respectively.

As to HPRHYATVM, the concentration for half-maximal inhibition (IC50) in the test with HLA-B*07:02 was 0.87 nM; with HLA-B*35:01 [8] it was 63 nM. Moreover, the values for the Kd with HLA-B*54:01 [9], in the test with HLA-B*51:01 and with HLA-B*53:01 were 4380 nM, 14.7 µM and 3.06 µM, respectively.

As to GLNDYLHSV, the IC50 with HLA-A*02:02 amounted to 0.74 nM; with HLA-A*02:03, 1.4 nM; in the test with HLA-A*02:06 [10], 3.9 nM. In addition, the Kd with HLA-A*68:02 [11] came out at 2660 nM.

On to VSVNNVCHMY, for which the figures for the IC50 with HLA-A*30:02 [12] and with HLA-A*01:01 [4] were 3.7 nM and 130 nM, respectively. The Kd with HLA-A*29:02 [5] was found to be 1080 nM; with HLA-A*26:01 [6] it was 4.26 µM.

As for IVFNLPVSK, the IC50 with HLA-A*31:01 [1] was 23 nM; with HLA-A*68:01 [2], 5.4 nM; with HLA-A*11:01, 4.6 nM; with HLA-A*03:01, 2.2 nM. Also, the Kd with HLA-A*33:01 was found to be 3.17 µM.

Consider SMHFYGWSL, for which the dissociation constant Kd in the test with HLA-A*02:06 [13] amounted to 2040 nM.

As to GTIAGGVCYY, the concentration for half-maximal inhibition (IC50) with HLA-A*11:01 was found to be 4.5 nM; with HLA-A*03:01, 132 nM. Moreover, the Kd was at least 38.6 µM with HLA-A*33:01, 8.45 µM with HLA-A*31:01 [14] and 11.1 µM with HLA-A*68:01 [3].

Consider NQVKFYFNK, for which the IC50 in the test with HLA-A*31:01 [1] came to 15 nM; with HLA-A*68:01 [2], 5.8 nM; with HLA-A*11:01, 2.2 nM; with HLA-A*03:01, 192 nM. Moreover, the Kd with HLA-A*33:01 came out at 0.822 µM.

Consider DMCDIYLLY, for which the IC50 was determined as 89 nM in the test with HLA-A*29:02 [15], 82 nM with HLA-A*26:01 [16], 55 nM with HLA-A*30:02 [12] and 28 nM with HLA-A*01:01 [4].

For SQSDTVFDY, the IC50 in the test with HLA-A*30:02 [12] was 2.3 nM. Further, the results for the dissociation constant (Kd) in the test with HLA-A*29:02 [5], with HLA-A*26:01 [6] and with HLA-A*01:01 [17] were 844 nM, 1.86 µM and 3.02 µM, respectively.

VTDTNKFDNY: the IC50 in the test with HLA-A*30:02 [12] is 256 nM; in the test with HLA-A*01:01 [4], 1.6 nM. The results for the Kd with HLA-A*29:02 [5] and with HLA-A*26:01 [6] were at least 50000 nM and at least 50 µM, respectively.

Regarding AVFKDSFLRK, the IC50 with HLA-A*68:01 [2] stood at 47 nM; with HLA-A*11:01, 121 nM; with HLA-A*03:01, 8.2 nM. The Kd in the test with HLA-A*33:01 was at least 42.4 µM; in the test with HLA-A*31:01 [14] it was 0.686 µM.

Turning to FLTSVINRV, the concentration for half-maximal inhibition (IC50) with HLA-A*02:02 stood at 0.11 nM; with HLA-A*02:03, 1.4 nM; in the test with HLA-A*68:02 [18], 0.42 nM; in the test with HLA-A*02:06 [10] it was 4.8 nM.

With RPMSLRSTII, the IC50 was 265 nM in the test with HLA-B*54:01 [19] and 0.43 nM with HLA-B*07:02. For the same sequence, the Kd was 9.62 µM with HLA-B*51:01, 1.23 µM in the test with HLA-B*53:01 and at least 45.9 µM in the test with HLA-B*35:01 [20].

Regarding FTIDFKLKY, the results for the IC50 in the test with HLA-A*29:02 [15], with HLA-A*26:01 [16] and in the test with HLA-A*01:01 [4] were 1.4 nM, 21 nM and 60 nM, respectively. Further, in the test with HLA-A*30:02 [7], the Kd was 1050 nM.

Regarding QSITRSLIY, the IC50 in the test with HLA-A*29:02 [15] was determined as 295 nM; in the test with HLA-A*30:02 [12], 291 nM; with HLA-A*01:01 [4] it was 74 nM. For the same sequence, the Kd with HLA-A*26:01 [6] came to 4.99 µM.

In the case of RYRFAFLYLL, the half-inhibitory concentration (IC50) in the test with HLA-A*24:02 was determined as 166 nM; in the test with HLA-A*23:01 it was 41 nM. Besides, in the test with HLA-A*29:02 [5], the Kd was 16200 nM.

On to NLFDIPLLTV, for which the IC50 is 0.1 nM with HLA-A*02:02, 0.25 nM with HLA-A*02:03, 8.1 nM with HLA-A*68:02 [18] and 1.5 nM in the test with HLA-A*02:06 [10].

In the case of QSDTVFDYY, in the test with HLA-A*01:01 [4], the IC50 was 1 nM. Moreover, the Kd was at least 50000 nM with HLA-A*29:02 [5], at least 50 µM with HLA-A*26:01 [6] and 2950 nM in the test with HLA-A*30:02 [7].

Take ILDDNLYKV: the 50% inhibitory concentration (IC50) was found to be 4.5 nM with HLA-A*02:02, 61 nM with HLA-A*02:03 and 8.9 nM in the test with HLA-A*02:06 [10]. In addition, in the test with HLA-A*68:02 [11], the dissociation constant (Kd) was at least 48300 nM.

In the case of KLKIISNDYK, the half-inhibitory concentration (IC50) with HLA-A*31:01 [1] was 137 nM; with HLA-A*11:01, 464 nM; in the test with HLA-A*03:01 it was 4.5 nM. For the same sequence, the Kd with HLA-A*33:01 and with HLA-A*68:01 [3] was at least 50 µM in each case.

In the case of KPKPAVRFAI, the IC50 with HLA-B*07:02 is 0.18 nM. In addition, the Kd was 680 nM in the test with HLA-B*54:01 [9], at least 50 µM with HLA-B*51:01, at least 20.5 µM in the test with HLA-B*53:01 and at least 36.3 µM in the test with HLA-B*35:01 [20].

Turning to VTSSGAIYK, the figures for the IC50 with HLA-A*68:01 [2], in the test with HLA-A*11:01 and in the test with HLA-A*03:01 were 24 nM, 3.1 nM and 10 nM, respectively. Further, the figures for the Kd with HLA-A*33:01 and in the test with HLA-A*31:01 [14] were at least 21.4 µM and 3.97 µM, respectively.

In the case of VWINNSWKF, the IC50 with HLA-A*29:02 [15] came out at 4.9 nM; with HLA-A*24:02, 6.4 nM; with HLA-A*23:01, 5.3 nM.

Regarding KTKNFTIDFK, the IC50 with HLA-A*31:01 [1] was found to be 14 nM; with HLA-A*68:01 [2] it was 144 nM; in the test with HLA-A*11:01, 22 nM; in the test with HLA-A*03:01, 11 nM. Moreover, the Kd with HLA-A*33:01 is at least 40.4 µM.

On to FLSMLNLTKY, for which the figures for the IC50 with HLA-A*29:02 [15], with HLA-A*30:02 [12] and with HLA-A*01:01 [4] were 154 nM, 500 nM and 267 nM, respectively. In the test with HLA-A*26:01 [6], the Kd stood at 7.83 µM.

As for FLNISWFYI, the IC50 with HLA-A*02:02 was 0.17 nM; with HLA-A*02:03, 0.33 nM; with HLA-A*68:02 [18], 240 nM; with HLA-A*02:06 [10], 1 nM.
